Test results published in publication PMC13489962, “Small-molecule modulation of β-arrestins” (Nature, 2026).
One block for each substance: values may come before it.

Experiments:
[1] = tested on: Gi-mediated inhibition of adenylyl cyclase (D2R, M2R); assay: GloSensor cAMP Gi activity assay at D2R or M2R; format: cell-based; settings: modulators 50 μM, 15 min; PTX 100 ng/mL overnight; forskolin 2 μM
Method: Gi-mediated inhibition of adenylyl cyclase was assessed using the GloSensor cAMP bioluminescence biosensor (Promega). HEK293 cells were transiently transfected with D2R or M2R together with the GloSensor cAMP reporter construct, using FuGENE 6 per the manufacturer’s protocol. Cells were seeded into poly-D-lysine-coated white clear-bottom 96-well plates at 60,000 cells per well and cultured for 24 h. GloSensor reagent was added per the manufacturer’s instructions and cells were equilibrated for 1 h at room temperature. Where indicated, pertussis toxin (PTX; 100 ng ml^−1) was applied overnight as a positive control for Gi blockade. Compounds (Cmpd-5, Cmpd-46 or Cmpd-64; 50 μM) or vehicle (DMSO) in HBSS supplemented with 20 mM HEPES (pH 7.4) and 0.05% BSA were applied for 15 min at room temperature. Cells were stimulated with forskolin (2 μM, 5 min), followed by concentration-response stimulation with quinpirole (D2R) or acetylcholine (M2R). Luminescence was recorded every 5 min over 30 min using a CLARIOstar microplate reader (BMG Labtech). Forskolin-stimulated cAMP, quantified at 10 min after agonist addition, was normalized to the maximal forskolin response per condition. Gi activity was derived from the inhibitory plateau and expressed as a percentage of the DMSO plus agonist control.

[2] = biological target: phosphorylated β2V2R (pβ2V2R): N-terminal Flag-tagged T4 lysozyme fusion-β2V2R (β2AR residues 1–341 fused to V2R residues 328–372) (UniProt P07550)
[3] = biological target: β2V2R fused to the ProLink tag (inactive portion of β-galactosidase), in U2OS PathHunter cells; assay: split reporter (BiFC, NanoBiT); PathHunter β-galactosidase enzyme fragment complementation in U2OS cells co-expressing βARR2 (enzyme acceptor) and β2V2R (ProLink); modulators or vehicle 30 min, then isoproterenol 60 min at 37 °C

Chain of βARR2 fused to the enzyme acceptor (EA) portion of β-galactosidase, in U2OS PathHunter cells (P32121 whole entry, the tested form may be a part): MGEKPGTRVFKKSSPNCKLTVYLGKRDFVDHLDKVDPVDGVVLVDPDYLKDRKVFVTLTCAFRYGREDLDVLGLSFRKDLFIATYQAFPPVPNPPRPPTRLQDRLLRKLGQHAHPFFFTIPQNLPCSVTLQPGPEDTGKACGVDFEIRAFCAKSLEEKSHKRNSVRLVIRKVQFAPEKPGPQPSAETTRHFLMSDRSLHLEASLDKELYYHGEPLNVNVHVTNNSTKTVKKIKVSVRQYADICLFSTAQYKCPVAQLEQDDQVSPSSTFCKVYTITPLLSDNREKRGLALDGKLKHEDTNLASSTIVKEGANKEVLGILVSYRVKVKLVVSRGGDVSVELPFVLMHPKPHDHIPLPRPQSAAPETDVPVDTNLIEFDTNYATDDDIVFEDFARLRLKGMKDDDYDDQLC
Chain of β-arrestin2 (βARR2), rat, C terminus truncated at amino acid 394 (P29067 1-394): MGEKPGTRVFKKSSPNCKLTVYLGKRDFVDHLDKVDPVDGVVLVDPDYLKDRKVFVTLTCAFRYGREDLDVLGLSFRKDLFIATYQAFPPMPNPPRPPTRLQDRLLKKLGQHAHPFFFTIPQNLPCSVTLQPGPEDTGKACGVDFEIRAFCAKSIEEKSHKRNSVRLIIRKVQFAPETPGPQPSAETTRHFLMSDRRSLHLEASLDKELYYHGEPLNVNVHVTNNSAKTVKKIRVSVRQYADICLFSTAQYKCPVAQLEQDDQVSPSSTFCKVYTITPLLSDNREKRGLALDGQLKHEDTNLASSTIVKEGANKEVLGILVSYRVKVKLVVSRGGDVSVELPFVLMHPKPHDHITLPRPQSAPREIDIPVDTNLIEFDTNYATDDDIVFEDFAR

Substance: pertussis toxin
effect on agonist-induced, Gi-mediated cAMP reduction at D2R or M2R [1]: abolished this response entirely

reduction of β-arrestin-mediated high-affinity [^3H]-Fen binding to pβ2V2R by Cmpd-5, Cmpd-46 and Cmpd-64, each (100 μM) [2]: 40%
Substance: β-arrestin2 (βARR2), rat, C terminus truncated at amino acid 394 (from UniProt P29067 1-394) (domain or fragment)

reduction of Emax of Iso-induced recruitment with 50 μM Cmpd-46 [3]: 77.3%
reduction of Emax of Iso-induced recruitment with 50 μM Cmpd-64 [3]: 74.4%
Substance: βARR2 fused to the enzyme acceptor (EA) portion of β-galactosidase, in U2OS PathHunter cells (from UniProt P32121 1-409) (natural protein)
